Measured values taken from article PMC11770177, “Skeletal progenitor LRP1 deficiency causes severe and persistent skeletal defects with Wnt pathway dysregulation” (Bone Research, 2025).
Blank lines part the entries; values can stand above or below the binder they belong to.

Biological target: T1, low-density lipoprotein (LDL) receptor-related protein 1 (LRP1), purified human full-length (human, UniProt Q07954 20-4544)
T1 construct: LRP1, human, purified full-length protein coated onto microtiter plates; also called full-length LRP1; Full-length sLRP1; source: purified
Test: ELISA; solid-phase binding assay; human full-length LRP1 (10 nmol/L) coated overnight at 4 °C onto microtiter plates in 50 mmol/L Tris-HCl (pH 7.5)/150 mmol/L NaCl/10 mmol/L CaCl2; 0-200 nmol/L Wnt in 5% BSA blocking solution, 30 min at RT; bound Wnt detected with a specific antibody; signal of wells without LRP1 subtracted; apparent KD (K_D,app), extrapolated from a one-phase decay nonlinear fit
Conditions: both partners purified

T1 sequence (Q07954 20-4544): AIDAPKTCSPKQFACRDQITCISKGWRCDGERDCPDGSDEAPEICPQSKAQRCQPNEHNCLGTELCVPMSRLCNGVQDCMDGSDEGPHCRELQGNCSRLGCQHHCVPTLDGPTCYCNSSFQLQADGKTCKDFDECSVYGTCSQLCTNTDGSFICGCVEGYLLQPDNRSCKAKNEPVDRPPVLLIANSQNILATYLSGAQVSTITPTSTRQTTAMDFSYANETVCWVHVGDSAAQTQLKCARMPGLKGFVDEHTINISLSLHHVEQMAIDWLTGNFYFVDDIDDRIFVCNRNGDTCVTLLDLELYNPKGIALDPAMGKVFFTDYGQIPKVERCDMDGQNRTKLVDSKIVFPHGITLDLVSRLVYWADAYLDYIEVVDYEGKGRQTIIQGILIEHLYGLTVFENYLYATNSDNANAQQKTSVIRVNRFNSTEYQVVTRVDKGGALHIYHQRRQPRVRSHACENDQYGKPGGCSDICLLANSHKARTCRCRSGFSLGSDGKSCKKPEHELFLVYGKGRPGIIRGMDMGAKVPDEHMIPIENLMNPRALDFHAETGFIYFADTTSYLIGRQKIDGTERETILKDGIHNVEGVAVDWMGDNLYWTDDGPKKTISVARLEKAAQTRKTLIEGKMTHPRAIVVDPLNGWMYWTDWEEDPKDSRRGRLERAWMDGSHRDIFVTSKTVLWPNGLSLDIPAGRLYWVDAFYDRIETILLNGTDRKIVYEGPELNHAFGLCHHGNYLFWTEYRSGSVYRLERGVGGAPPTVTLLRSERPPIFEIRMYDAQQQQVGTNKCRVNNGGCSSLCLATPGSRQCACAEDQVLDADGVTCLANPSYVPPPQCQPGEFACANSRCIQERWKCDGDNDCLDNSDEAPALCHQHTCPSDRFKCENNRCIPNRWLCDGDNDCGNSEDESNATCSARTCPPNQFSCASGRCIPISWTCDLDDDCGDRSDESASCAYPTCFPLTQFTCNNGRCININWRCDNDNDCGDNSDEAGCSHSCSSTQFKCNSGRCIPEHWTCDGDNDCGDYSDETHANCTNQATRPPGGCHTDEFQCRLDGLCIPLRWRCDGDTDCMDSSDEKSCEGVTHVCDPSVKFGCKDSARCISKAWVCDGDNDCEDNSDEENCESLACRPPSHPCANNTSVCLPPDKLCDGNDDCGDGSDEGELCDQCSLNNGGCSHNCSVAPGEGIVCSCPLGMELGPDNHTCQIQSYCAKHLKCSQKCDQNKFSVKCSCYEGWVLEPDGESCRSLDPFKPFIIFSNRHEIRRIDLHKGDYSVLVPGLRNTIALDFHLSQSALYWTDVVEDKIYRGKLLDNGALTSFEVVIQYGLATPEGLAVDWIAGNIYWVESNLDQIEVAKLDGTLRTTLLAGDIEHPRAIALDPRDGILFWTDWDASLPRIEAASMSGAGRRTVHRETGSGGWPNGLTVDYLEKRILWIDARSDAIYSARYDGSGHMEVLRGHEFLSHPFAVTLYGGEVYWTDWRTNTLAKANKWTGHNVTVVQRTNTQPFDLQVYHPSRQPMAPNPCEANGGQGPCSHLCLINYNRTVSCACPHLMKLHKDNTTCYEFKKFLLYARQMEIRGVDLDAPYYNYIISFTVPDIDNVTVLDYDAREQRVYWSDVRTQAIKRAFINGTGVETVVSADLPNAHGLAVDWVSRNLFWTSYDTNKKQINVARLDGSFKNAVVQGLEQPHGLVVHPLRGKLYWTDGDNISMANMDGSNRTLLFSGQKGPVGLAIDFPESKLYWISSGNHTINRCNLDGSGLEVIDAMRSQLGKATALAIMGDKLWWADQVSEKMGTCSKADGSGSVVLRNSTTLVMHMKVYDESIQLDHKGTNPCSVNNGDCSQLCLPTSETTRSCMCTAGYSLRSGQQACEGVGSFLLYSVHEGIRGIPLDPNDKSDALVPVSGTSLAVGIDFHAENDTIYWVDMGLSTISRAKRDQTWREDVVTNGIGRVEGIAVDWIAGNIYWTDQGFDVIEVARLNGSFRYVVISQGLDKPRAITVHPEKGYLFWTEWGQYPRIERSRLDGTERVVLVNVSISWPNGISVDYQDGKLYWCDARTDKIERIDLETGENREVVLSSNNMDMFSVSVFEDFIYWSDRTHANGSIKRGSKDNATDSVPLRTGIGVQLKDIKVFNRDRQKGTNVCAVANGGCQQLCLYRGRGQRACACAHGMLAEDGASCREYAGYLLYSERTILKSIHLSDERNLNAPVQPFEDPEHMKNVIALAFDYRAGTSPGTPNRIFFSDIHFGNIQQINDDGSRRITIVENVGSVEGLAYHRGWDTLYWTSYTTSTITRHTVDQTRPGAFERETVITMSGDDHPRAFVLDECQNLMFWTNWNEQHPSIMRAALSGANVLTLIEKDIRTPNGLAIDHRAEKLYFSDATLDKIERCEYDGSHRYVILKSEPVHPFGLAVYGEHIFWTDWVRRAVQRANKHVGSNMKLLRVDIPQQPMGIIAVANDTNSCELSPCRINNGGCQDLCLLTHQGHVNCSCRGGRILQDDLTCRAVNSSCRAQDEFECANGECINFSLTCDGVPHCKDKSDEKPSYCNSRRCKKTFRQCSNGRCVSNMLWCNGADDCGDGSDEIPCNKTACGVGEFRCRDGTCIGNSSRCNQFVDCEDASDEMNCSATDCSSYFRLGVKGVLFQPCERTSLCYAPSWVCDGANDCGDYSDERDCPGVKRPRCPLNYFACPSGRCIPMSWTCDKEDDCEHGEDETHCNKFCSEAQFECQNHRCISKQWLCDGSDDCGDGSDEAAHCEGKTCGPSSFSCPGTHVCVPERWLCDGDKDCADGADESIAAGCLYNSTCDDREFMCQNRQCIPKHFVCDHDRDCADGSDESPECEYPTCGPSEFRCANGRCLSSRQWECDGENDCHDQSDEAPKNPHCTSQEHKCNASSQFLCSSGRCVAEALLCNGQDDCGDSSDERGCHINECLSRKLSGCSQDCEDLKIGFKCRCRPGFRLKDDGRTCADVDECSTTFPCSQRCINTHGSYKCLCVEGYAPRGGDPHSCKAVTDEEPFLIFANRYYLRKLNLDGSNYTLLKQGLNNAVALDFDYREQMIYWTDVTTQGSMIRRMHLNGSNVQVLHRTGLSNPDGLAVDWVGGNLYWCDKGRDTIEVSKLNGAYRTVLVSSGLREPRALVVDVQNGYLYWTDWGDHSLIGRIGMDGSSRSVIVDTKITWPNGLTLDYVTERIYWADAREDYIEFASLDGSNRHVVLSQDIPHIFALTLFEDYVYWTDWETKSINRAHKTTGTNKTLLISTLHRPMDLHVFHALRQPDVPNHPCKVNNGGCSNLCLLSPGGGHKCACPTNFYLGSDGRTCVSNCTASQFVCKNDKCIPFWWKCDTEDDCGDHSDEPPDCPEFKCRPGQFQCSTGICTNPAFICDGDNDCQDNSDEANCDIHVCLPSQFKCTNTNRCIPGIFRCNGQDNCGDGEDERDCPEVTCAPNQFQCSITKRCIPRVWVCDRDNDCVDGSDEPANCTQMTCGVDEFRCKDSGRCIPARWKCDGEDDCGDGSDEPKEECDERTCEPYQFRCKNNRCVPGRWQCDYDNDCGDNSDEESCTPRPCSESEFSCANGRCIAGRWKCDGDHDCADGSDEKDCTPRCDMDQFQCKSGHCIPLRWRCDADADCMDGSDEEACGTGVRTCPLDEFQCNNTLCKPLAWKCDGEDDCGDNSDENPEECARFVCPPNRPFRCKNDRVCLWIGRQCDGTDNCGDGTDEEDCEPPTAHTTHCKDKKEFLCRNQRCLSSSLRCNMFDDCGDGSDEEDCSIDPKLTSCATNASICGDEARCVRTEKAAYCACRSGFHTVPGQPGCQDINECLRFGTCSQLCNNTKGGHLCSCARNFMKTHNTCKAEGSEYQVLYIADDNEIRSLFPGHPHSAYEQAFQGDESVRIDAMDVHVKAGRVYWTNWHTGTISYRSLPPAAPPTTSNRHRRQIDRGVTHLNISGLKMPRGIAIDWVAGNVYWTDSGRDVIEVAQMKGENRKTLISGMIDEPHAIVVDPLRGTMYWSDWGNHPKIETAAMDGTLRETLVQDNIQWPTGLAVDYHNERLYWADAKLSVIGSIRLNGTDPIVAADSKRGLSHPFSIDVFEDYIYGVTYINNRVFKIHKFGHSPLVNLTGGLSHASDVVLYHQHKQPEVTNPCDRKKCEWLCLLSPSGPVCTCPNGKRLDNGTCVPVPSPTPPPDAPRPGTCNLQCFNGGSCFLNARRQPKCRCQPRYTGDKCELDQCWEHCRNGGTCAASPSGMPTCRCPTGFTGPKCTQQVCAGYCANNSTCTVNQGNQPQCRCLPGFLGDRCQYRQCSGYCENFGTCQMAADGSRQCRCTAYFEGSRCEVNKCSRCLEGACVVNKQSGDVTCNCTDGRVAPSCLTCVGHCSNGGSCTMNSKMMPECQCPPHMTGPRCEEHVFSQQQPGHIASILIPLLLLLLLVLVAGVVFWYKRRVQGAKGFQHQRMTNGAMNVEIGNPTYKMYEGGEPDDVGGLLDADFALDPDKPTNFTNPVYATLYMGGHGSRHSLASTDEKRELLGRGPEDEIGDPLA

Kd: 42 nM
B1: Wnt11 (ligand, UniProt O96014 25-354, looked up)
chain: IKWLALSKTPSALALNQTQHCKQLEGLVSAQVQLCRSNLELMHTVVHAAREVMKACRRAFADMRWNCSSIELAPNYLLDLERGTRESAFVYALSAAAISHAIARACTSGDLPGCSCGPVPGEPPGPGNRWGGCADNLSYGLLMGAKFSDAPMKVKKTGSQANKLMRLHNSEVGRQALRASLEMKCKCHGVSGSCSIRTCWKGLQELQDVAADLKTRYLSATKVVHRPMGTRKHLVPKDLDIRPVKDSELVYLQSSPDFCMKNEKVGSHGTQDRQCNKTSNGSDSCDLMCCGRGYNPYTDRVVERCHCKYHWCCYVTCRRCERTVERYVCK
notes: Wnt11, purified protein; also called purified Wnt11; source: purified

Kd: > 200 nM
B2: Wnt3a (ligand, UniProt P56704 19-352, looked up)
chain: SYPIWWSLAVGPQYSSLGSQPILCASIPGLVPKQLRFCRNYVEIMPSVAEGIKIGIQECQHQFRGRRWNCTTVHDSLAIFGPVLDKATRESAFVHAIASAGVAFAVTRSCAEGTAAICGCSSRHQGSPGKGWKWGGCSEDIEFGGMVSREFADARENRPDARSAMNRHNNEAGRQAIASHMHLKCKCHGLSGSCEVKTCWWSQPDFRAIGDFLKDKYDSASEMVVEKHRESRGWVETLRPRYTYFKVPTERDLVYYEASPNFCEPNPETGSFGTRDRTCNVSSHGIDGCDLLCCGRGHNARAERRREKCRCVFHWCCYVSCQECTRVYDVHTCK
notes: Wnt3a, purified protein; also called purified Wnt3a; source: purified

Kd: 31 nM
B3: Wnt5a (ligand, UniProt P41221 62-380, looked up)
chain: IIGAQPLCSQLAGLSQGQKKLCHLYQDHMQYIGEGAKTGIKECQYQFRHRRWNCSTVDNTSVFGRVMQIGSRETAFTYAVSAAGVVNAMSRACREGELSTCGCSRAARPKDLPRDWLWGGCGDNIDYGYRFAKEFVDARERERIHAKGSYESARILMNLHNNEAGRRTVYNLADVACKCHGVSGSCSLKTCWLQLADFRKVGDALKEKYDSAAAMRLNSRGKLVQVNSRFNSPTTQDLVYIDPSPDYCVRNESTGSLGTQGRLCNKTSEGMDGCELMCCGRGYDQFKTVQTERCHCKFHWCCYVKCKKCTEIVDQFVCK
notes: Wnt5a, purified protein; also called purified Wnt5a; source: purified
